Tested on: BirA*-FLAG-GATAD1 variants in Flp-In-293 cells
Test: BioID proximity labelling of full-length GATAD1 variants (SILAC)
Type: cell-based, human
Settings: GATAD1 WT vs S102P, significant proteins only; for Log2_Ratio.H.L.normalized.WT_S102P_forward: forward experiment (label swap performed, sign inverted against the H/L ratio); for Log2_Ratio.H.L.normalized.WT_S102P_forward / Log2_Ratio.H.L.normalized.WT_S102P_reverse: log2 of normalized H/L ratio; for Ratio.H.L.normalized.WT_S102P_forward: forward experiment; for Log2_Ratio.H.L.normalized.WT_S102P_reverse / Ratio.H.L.normalized.WT_S102P_reverse: reverse experiment
How it was run: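 Tetracycline-inducible Flp-In-293 T-REx lines expressing N-terminal BirA*-FLAG GATAD1 variants (WT, S102P, S102D, S102A) were SILAC-labelled, induced with 1 μg/mL tetracycline for 24 h and given 50 μM biotin overnight. Streptavidin-enriched proteins were trypsin-digested on-bead and analysed by LC-MS/MS. Label-swapped log2 SILAC ratios beyond ±1 defined differential proteins (n = 2).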

B1: HN1L (protein, UniProt Q9H910 1-190, looked up)
Jupiter microtubule …: MFQVPDSEGGRAGSRAMKPPGGESSNLFGSPEEATPSSRPNRMASNIFGPTEEPQNIPKRTNPPGGKGSGIFDESTPVQTRQHLNPPGGKTSDIFGSPVTATSRLAHPNKPKDHVFLCEGEEPKSDLKAARSIPAGAEPGEKGSARKAGPAKEQEPMPTVDSHEPRLGPRPRSHNKVLNPPGGKSSISFY
- Log2_Ratio.H.L.normalized.WT_S102P_forward: 1.324
- Ratio.H.L.normalized.WT_S102P_forward: 0.3994
- Log2_Ratio.H.L.normalized.WT_S102P_reverse: 1.259
- Ratio.H.L.normalized.WT_S102P_reverse: 2.3935

B2: SAP30BP (protein, UniProt Q9UHR5 1-308, looked up)
SAP30-binding protein: MAGKKNVLSSLAVYAEDSEPESDGEAGIEAVGSAAEEKGGLVSDAYGEDDFSRLGGDEDGYEEEEDENSRQSEDDDSETEKPEADDPKDNTEAEKRDPQELVASFSERVRNMSPDEIKIPPEPPGRCSNHLQDKIQKLYERKIKEGMDMNYIIQRKKEFRNPSIYEKLIQFCAIDELGTNYPKDMFDPHGWSEDSYYEALAKAQKIEMDKLEKAKKERTKIEFVTGTKKGTTTNATSTTTTTASTAVADAQKRKSKWDSAIPVTTIAQPTILTTTATLPAVVTVTTSASGSKTTVISAVGTIVKKAKQ
- Log2_Ratio.H.L.normalized.WT_S102P_forward: 1.673
- Ratio.H.L.normalized.WT_S102P_forward: 0.3135
- Log2_Ratio.H.L.normalized.WT_S102P_reverse: 1.201
- Ratio.H.L.normalized.WT_S102P_reverse: 2.2985

— publication PMC11009412, “Pathogenic mutations of human phosphorylation sites affect protein–protein interactions” (Nature Communications, 2024)
